This passage reports EC50, binding result and IC50 results from US20240209099A1 (SUZHOU TRANSCENTA THERAPEUTICS, published 2024).

As usually defined, the EC50 is the midpoint of the concentration-response curve. Broadly, the IC50 is the midpoint of a concentration-inhibition curve.

Assay [1] deals with T1, Recombinant Human VEGFR2/KDR Protein, His tag (hVEGFR2-his) (human, UniProt P35968 20-764).
T1 construct: Expressed in HEK293, bought from ACRO Biosystems; also called human VEGFR2-his; Human VEGFR2/KDR-His
Description: ELISA, human VEGFR2-his coated, anti-human Fc-HRP; antibody made in CHO cells. Background: An ELISA detects its analyte on a solid surface through an enzyme-linked reagent.

The next assay has as its target T2, human VEGFR1 protein (human, UniProt P17948 27-756).
T2 construct: also called Sino Biological 10136-H08H
Description: ELISA, 1 µg/ml antigen coated, 1 µg/ml antibody. The method, then: (§1) Briefly, 1 μg/ml human VEGFR1 (Sino Biological, cat #10136-H08H), VEGFR2 (Acrobiosystem, cat #KDR-H5227) and VEGFR3 (Sino Biological, cat #10806-H08H) protein were coated overnight at 4° C. 1 μg/ml humanized antibodies (48-H3L1 and 54-H2L1, produced in CHO cells or Ramucirumab from Eli Lilly Germany, lot #20150819) were added for binding to coated antigen. Secondary antibody HRP conjugated goat anti-human Fc antibody were added for detection of binding signal.

In a further assay the target is T3, human VEGFR3 protein (human, UniProt P35916 25-776).
T3 construct: also called Sino Biological 10806-H08H
T3 sequence (looked up): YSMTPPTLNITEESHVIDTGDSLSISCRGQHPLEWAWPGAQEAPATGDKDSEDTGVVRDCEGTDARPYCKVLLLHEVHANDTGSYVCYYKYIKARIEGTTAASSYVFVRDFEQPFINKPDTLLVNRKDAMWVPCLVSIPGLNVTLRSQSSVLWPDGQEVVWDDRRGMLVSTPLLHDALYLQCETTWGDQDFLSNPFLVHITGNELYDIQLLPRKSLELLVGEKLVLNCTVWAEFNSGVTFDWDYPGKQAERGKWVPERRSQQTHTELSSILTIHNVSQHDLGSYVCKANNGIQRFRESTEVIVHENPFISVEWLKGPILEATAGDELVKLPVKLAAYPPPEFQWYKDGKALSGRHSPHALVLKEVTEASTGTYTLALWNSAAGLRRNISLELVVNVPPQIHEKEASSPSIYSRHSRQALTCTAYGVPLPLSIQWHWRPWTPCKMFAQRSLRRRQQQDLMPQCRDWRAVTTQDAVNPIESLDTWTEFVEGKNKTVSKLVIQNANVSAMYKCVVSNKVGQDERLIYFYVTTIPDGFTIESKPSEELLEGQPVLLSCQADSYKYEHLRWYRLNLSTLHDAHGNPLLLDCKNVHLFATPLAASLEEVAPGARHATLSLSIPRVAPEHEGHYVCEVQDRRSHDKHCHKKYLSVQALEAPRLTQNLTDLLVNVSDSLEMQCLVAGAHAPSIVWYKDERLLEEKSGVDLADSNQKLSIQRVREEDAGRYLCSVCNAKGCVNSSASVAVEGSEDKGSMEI
Nature of the assay: ELISA, 1 µg/ml antigen coated, 1 µg/ml antibody. The method, then: as §1

The target in assay [2] is T4, Recombinant Rhesus macaque VEGFR2/KDR Protein, His tag (rhesus macaque).
T4 construct: Expressed in HEK293, bought from ACRO Biosystems; also called rhesus VEGFR2-his; rhesus VEGFR2
T4 chain: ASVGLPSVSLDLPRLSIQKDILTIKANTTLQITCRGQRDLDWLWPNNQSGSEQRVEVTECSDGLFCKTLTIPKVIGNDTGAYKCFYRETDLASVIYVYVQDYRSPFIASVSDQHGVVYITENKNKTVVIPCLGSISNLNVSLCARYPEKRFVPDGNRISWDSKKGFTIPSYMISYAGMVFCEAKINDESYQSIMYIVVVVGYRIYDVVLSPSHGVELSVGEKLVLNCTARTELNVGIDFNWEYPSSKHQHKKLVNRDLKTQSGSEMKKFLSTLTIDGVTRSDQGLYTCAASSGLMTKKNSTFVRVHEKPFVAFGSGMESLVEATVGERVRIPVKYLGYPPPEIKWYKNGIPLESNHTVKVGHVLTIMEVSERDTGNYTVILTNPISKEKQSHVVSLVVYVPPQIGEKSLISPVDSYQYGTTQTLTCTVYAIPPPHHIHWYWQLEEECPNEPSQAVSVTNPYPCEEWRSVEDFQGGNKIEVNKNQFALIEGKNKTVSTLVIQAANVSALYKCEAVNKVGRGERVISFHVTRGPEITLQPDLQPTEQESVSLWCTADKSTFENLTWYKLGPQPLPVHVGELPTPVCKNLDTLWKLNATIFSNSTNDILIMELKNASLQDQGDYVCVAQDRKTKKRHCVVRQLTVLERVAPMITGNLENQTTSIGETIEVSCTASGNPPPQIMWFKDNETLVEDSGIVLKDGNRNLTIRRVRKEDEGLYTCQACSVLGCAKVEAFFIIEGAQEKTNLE
Description: ELISA, rhesus VEGFR2-his coated, anti-human Fc-HRP; antibody made in CHO cells.

Assay [3] deals with T1, Recombinant Human VEGFR2/KDR Protein, …. Nature of the assay: competition ELISA: VEGF-A coated (0.25 ug/ml), antibody titrated together with 1 ug/ml human VEGFR2, detection with mouse anti-VEGFR2 serum and anti-mouse Fc-HRP; blocked ligand VEGF-A. The method, then:
(§2) For this assay, 0.25 μg/ml VEGF-A was coated on ELISA plate before a mixture of chimeric antibodies and VEGFR2 were added. To detect free VEGF-A (not bind to VEGFR2), 1:1000 diluted mouse serum (mouse previous immunized with human VEGFR2) were added and HRP conjugated goat anti-mouse Fc antibody was used as secondary antibody.
(§3) Same protocol of Example 10. Briefly, 0.25 μg/ml VEGF-A was coated overnight at 4° C. After blocking, serial diluted 54-H2L1, 48-H3L1, Ramucirumab and 1 μg/ml human VEGFR2 or rhesus VEGFR2 were added at the same time for 2 hour-incubation. After wash, mouse serum containing polyclone VEGFR2 antibody and HRP conjugated goat anti-mouse Fc antibody were added for detection of free VEGF-A coated on the plates (see FIGS. 13A and 13B).

In assay [4] the target is T4, Recombinant Rhesus macaque VEGFR2/KDR …. Nature of the assay: competition ELISA: VEGF-A coated (0.25 ug/ml), antibody titrated together with 1 ug/ml rhesus VEGFR2, detection with mouse anti-VEGFR2 serum and anti-mouse Fc-HRP; blocked ligand VEGF-A. As to the method:
as §2, §3

The target of assay [5] is T1, Recombinant Human VEGFR2/KDR Protein, …. Nature of the assay: ELISA, hVEGFR2-his coated, anti-human Fc-HRP; antibody made in 293T cells. As to the method: Same protocol of Example 4 except using HRP conjugated goat anti-human Fc antibody as secondary antibody. Binding to hVEGFR2-his and rhesus VEGFR2-his (Acrobiosystems, Cat #VE2-C52H3) were also analyzed head-to-head.
Same protocol of Example 9.

T2 sequence (P17948 27-756 limits assumed): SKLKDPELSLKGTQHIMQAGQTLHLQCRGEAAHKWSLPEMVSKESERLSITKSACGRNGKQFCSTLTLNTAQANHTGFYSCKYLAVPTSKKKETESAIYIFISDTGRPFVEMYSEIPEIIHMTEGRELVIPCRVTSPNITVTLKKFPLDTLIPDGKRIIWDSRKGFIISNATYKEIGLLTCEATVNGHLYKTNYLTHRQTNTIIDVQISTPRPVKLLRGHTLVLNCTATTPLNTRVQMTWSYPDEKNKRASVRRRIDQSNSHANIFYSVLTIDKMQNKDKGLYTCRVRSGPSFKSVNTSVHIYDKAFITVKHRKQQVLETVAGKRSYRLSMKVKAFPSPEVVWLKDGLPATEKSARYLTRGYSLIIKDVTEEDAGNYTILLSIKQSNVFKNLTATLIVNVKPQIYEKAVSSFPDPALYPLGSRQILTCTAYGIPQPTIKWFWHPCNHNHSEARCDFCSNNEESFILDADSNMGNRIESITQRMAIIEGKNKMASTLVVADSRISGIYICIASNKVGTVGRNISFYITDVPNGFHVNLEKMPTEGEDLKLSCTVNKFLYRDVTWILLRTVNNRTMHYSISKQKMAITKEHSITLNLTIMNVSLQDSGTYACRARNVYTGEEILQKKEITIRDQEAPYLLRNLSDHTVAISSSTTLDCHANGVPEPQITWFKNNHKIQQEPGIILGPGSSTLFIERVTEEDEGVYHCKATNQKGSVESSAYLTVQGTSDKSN

B1: 54-H2L1 (humanized Mab54) (antibody, human IgG1, V domains shown)
VH: EVQLVESGGGLVKPGGSLRLSCAASGFTFSMYGMSWVRQAPGKRLEWVASISIGGSYTYYADSVKGRFTISRDNAKNTLYLQMNSLRAEDTAVYYCARELDGNYDYWGQGTTLTVSS
VL: DIVITQDELSLPVTFGESVSISCRSSKSLLYKDGKTYLNWFLQRPGQSPQLLIYLMSTRASGVSDRFSGSGSGTDFTLKISRVEAEDVGIYYCQQLVEYPFTFGSGTKLEIK
notes: also called 54-H2L1 (CHO); humanized 54 variant H2L1
As for B1, the EC50 in assay [1] turned out to be 0.00755 µg/mL; in assay [2] it was 0.0111 µg/mL; in assay [5] it was 0.0288 µg/mL. The binding result with human VEGFR1 protein and with human VEGFR3 protein was “no binding (tested: 1 µg/ml)” each time. The results for the IC50 in assay [3] and in assay [4] were 0.654 µg/mL and 0.805 µg/mL, respectively.
